Measured values from PMC10086585, “From netrin‐1‐targeted SPECT/CT to internal radiotherapy for management of advanced solid tumors” (EMBO Molecular Medicine, 2023).

Target: T1, human recombinant netrin‐1, on AHC biosensors (human, UniProt O95631 25-604)
T1 construct: netrin-1, human, recombinant; AHC sensors capture human IgG Fc, so an Fc-tagged netrin-1 is surmised; Capture through a human antibody cannot be excluded; It may otherwise be the same protein as m1; also called h‐netrin‐1
Test: BLI; netrin-1 on AHC biosensors; analytes at 3.12-100 nM; 30°C, 1,000 rpm; PBS, 0.02% Tween-20, 0.1% BSA; 5 min association, 5 min dissociation
Conditions: both partners purified

B1: fibronectin leucine‐rich transmembrane protein (FLRT1), recombinant human (natural protein, UniProt Q9NZU1 49-552, looked up)
chain: IDSTTCPSVCRCDNGFIYCNDRGLTSIPADIPDDATTLYLQNNQINNAGIPQDLKTKVNVQVIYLYENDLDEFPINLPRSLRELHLQDNNVRTIARDSLARIPLLEKLHLDDNSVSTVSIEEDAFADSKQLKLLFLSRNHLSSIPSGLPHTLEELRLDDNRISTIPLHAFKGLNSLRRLVLDGNLLANQRIADDTFSRLQNLTELSLVRNSLAAPPLNLPSAHLQKLYLQDNAISHIPYNTLAKMRELERLDLSNNNLTTLPRGLFDDLGNLAQLLLRNNPWFCGCNLMWLRDWVKARAAVVNVRGLMCQGPEKVRGMAIKDITSEMDECFETGPQGGVANAAAKTTASNHASATTPQGSLFTLKAKRPGLRLPDSNIDYPMATGDGAKTLAIHVKALTADSIRITWKATLPASSFRLSWLRLGHSPAVGSITETLVQGDKTEYLLTALEPKSTYIICMVTMETSNAYVADETPVCAKAETADSYGPTTTLNQEQNAGPMASLP
notes: FLRT1 (fibronectin leucine-rich transmembrane protein 1), human, recombinant; also called hFLRT‐1; FLTR1
Kd: 15.5 nM

B2: recombinant human vitronectin (natural protein, UniProt P04004 20-478, looked up)
chain: DQESCKGRCTEGFNVDKKCQCDELCSYYQSCCTDYTAECKPQVTRGDVFTMPEDEYTVYDDGEEKNNATVHEQVGGPSLTSDLQAQSKGNPEQTPVLKPEEEAPAPEVGASKPEGIDSRPETLHPGRPQPPAEEELCSGKPFDAFTDLKNGSLFAFRGQYCYELDEKAVRPGYPKLIRDVWGIEGPIDAAFTRINCQGKTYLFKGSQYWRFEDGVLDPDYPRNISDGFDGIPDNVDAALALPAHSYSGRERVYFFKGKQYWEYQFQHQPSQEECEGSSLSAVFEHFAMMQRDSWEDIFELLFWGRTSAGTRQPQFISRDWHGVPGQVDAAMAGRIYISGMAPRPSLAKKQRFRHRNRKGYRSQRGHSRGRNQNSRRPSRATWLSLFSSEESNLGANNYDDYRMDWLVPATCEPIQSVFFFSGDKYYRVNLRTRRVDTVDPPYPRSIAQYWLGCPAPGHL
notes: vitronectin, human, recombinant; also called hVitronectin
Kd: 6.85 nM

B3: recombinant human integrin α6β4 (complex)
chain 1: FNLDTREDNVIRKYGDPGSLFGFSLAMHWQLQPEDKRLLLVGAPRAEALPLQRANRTGGLYSCDITARGPCTRIEFDNDADPTSESKEDQWMGVTVQSQGPGGKVVTCAHRYEKRQHVNTKQESRDIFGRCYVLSQNLRIEDDMDGGDWSFCDGRLRGHEKFGSCQQGVAATFTKDFHYIVFGAPGTYNWKGIVRVEQKNNTFFDMNIFEDGPYEVGGETEHDESLVPVPANSYLGLLFLTSVSYTDPDQFVYKTRPPREQPDTFPDVMMNSYLGFSLDSGKGIVSKDEITFVSGAPRANHSGAVVLLKRDMKSAHLLPEHIFDGEGLASSFGYDVAVVDLNKDGWQDIVIGAPQYFDRDGEVGGAVYVYMNQQGRWNNVKPIRLNGTKDSMFGIAVKNIGDINQDGYPDIAVGAPYDDLGKVFIYHGSANGINTKPTQVLKGISPYFGYSIAGNMDLDRNSYPDVAVGSLSDSVTIFRSRPVINIQKTITVTPNRIDLRQKTACGAPSGICLQVKSCFEYTANPAGYNPSISIVGTLEAEKERRKSGLSSRVQFRNQGSEPKYTQELTLKRQKQKVCMEETLWLQDNIRDKLRPIPITASVEIQEPSSRRRVNSLPEVLPILNSDEPKTAHIDVHFLKEGCGDDNVCNSNLKLEYKFCTREGNQDKFSYLPIQKGVPELVLKDQKDIALEITVTNSPSNPRNPTKDGDDAHEAKLIATFPDTLTYSAYRELRAFPEKQLSCVANQNGSQADCELGNPFKRNSNVTFYLVLSTTEVTFDTPDLDINLKLETTSNQDNLAPITAKAKVVIELLLSVSGVAKPSQVYFGGTVVGEQAMKSEDEVGSLIEYEFRVINLGKPLTNLGTATLNIQWPKEISNGKWLLYLVKVESKGLEKVTCEPQKEINSLNLTESHNSRKKREITEKQIDDNRKFSLFAERKYQTLNCSVNVNCVNIRCPLRGLDSKASLILRSRLWNSTFLEEYSKLNYLDILMRAFIDVTAAAENIRLPNAGTQVRVTVFPSKTVAQYS
chain 2: NRCKKAPVKSCTECVRVDKDCAYCTDEMFRDRRCNTQAELLAAGCQRESIVVMESSFQITEETQIDTTLRRSQMSPQGLRVRLRPGEERHFELEVFEPLESPVDLYILMDFSNSMSDDLDNLKKMGQNLARVLSQLTSDYTIGFGKFVDKVSVPQTDMRPEKLKEPWPNSDPPFSFKNVISLTEDVDEFRNKLQGERISGNLDAPEGGFDAILQTAVCTRDIGWRPDSTHLLVFSTESAFHYEADGANVLAGIMSRNDERCHLDTTGTYTQYRTQDYPSVPTLVRLLAKHNIIPIFAVTNYSYSYYEKLHTYFPVSSLGVLQEDSSNIVELLEEAFNRIRSNLDIRALDSPRGLRTEVTSKMFQKTRTGSFHIRRGEVGIYQVQLRALEHVDGTHVCQLPEDQKGNIHLKPSFSDGLKMDAGIICDVCTCELQKEVRSARCSFNGDFVCGQCVCSEGWSGQTCNCSTGSLSDIQPCLREGEDKPCSGRGECQCGHCVCYGEGRYEGQFCEYDNFQCPRTSGFLCNDRGRCSMGQCVCEPGWTGPSCDCPLSNATCIDSNGGICNGRGHCECGRCHCHQQSLYTDTICEINYSAIHPGLCEDLRSCVQCQAWGTGEKKGRTCEECNFKVKMVDELKRAEEVVVRCSFRDEDDDCTYSYTMEGDGAPGPNSTVLVHKKKDCPPGS
notes: integrin alpha-6, human, recombinant; integrin beta-4, human, recombinant; also called hIntegrin
Kd: 0.96 nM

B4: recombinant human lumican (natural protein, UniProt P51884 19-338, looked up)
chain: QYYDYDFPLSIYGQSSPNCAPECNCPESYPSAMYCDELKLKSVPMVPPGIKYLYLRNNQIDHIDEKAFENVTDLQWLILDHNLLENSKIKGRVFSKLKQLKKLHINHNNLTESVGPLPKSLEDLQLTHNKITKLGSFEGLVNLTFIHLQHNRLKEDAVSAAFKGLKSLEYLDLSFNQIARLPSGLPVSLLTLYLDNNKISNIPDEYFKRFNALQYLRLSHNELADSGIPGNSFNVSSLVELDLSYNKLKNIPTVNENLENYYLEVNQLEKFDIKSFCKILGPLSYSKIKHLRLDGNRISETSLPPDMYECLRVANEVTLN
notes: lumican, human, recombinant; also called hLumican
Kd: 15.5 nM

B5: recombinant human glypican‐1 (natural protein, UniProt P35052 24-530, looked up)
chain: DPASKSRSCGEVRQIYGAKGFSLSDVPQAEISGEHLRICPQGYTCCTSEMEENLANRSHAELETALRDSSRVLQAMLATQLRSFDDHFQHLLNDSERTLQATFPGAFGELYTQNARAFRDLYSELRLYYRGANLHLEETLAEFWARLLERLFKQLHPQLLLPDDYLDCLGKQAEALRPFGEAPRELRLRATRAFVAARSFVQGLGVASDVVRKVAQVPLGPECSRAVMKLVYCAHCLGVPGARPCPDYCRNVLKGCLANQADLDAEWRNLLDSMVLITDKFWGTSGVESVIGSVHTWLAEAINALQDNRDTLTAKVIQGCGNPKVNPQGPGPEEKRRRGKLAPRERPPSGTLEKLVSEAKAQLRDVQDFWISLPGTLCSEKMALSTASDDRCWNGMARGRYLPEVMGDGLANQINNPEVEVDITKPDMTIRQQIMQLKIMTNRLRSAYNGNDVDFQDASDDGSGSGSGDGCLDDLCSRKVSRKSSSSRTPLTHALPGLSEQEGQKTS
notes: glypican-1, human, recombinant; also called hGlypican‐1
Kd: 15.6 nM
